T1: Movement Protein of ToBRFV (Tomato Brown Rugose Fruit Virus …, UniProt A0A0S2SZW1 1-266)
T1 sequence: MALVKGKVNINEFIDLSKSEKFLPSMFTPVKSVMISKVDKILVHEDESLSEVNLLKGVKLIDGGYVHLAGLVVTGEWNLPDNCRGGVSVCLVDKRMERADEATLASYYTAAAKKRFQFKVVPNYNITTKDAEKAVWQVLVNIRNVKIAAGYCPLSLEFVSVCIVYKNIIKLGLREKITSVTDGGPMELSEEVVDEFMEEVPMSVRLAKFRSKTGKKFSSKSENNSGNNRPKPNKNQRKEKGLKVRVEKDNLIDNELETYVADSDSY

B1: TM-2-2 variant pJL 476_T (822 T, 848 R) (receptor)
chain: MAEILLTSVINKSVEIAGNLLIQEGKRLYWLKEDIDWLQREMRHIRSYVDNAKAKEAGGDSRVKNLLKDIQELAGDVEDLLDDFLPKIQQSNKFNYCLKRSSFADEFAMEIEKIKRRVVDIDRIRKTYNIIDTDNNNDDCVLLDRRRLFLHADETEIIGLDDDFNMLQAKLLNQDLHYGVVSIVGMPGLGKTTLAKKLYRLIRDQFECSGLVYVSQQPRASEILLDIAKQIGLTEQKMKENLEDNLRSLLKIKRYVILLDDIWDVEIWDDLKLVLPECDSKVGSRMIITSRNSNVGRYIGGESSLHALQPLESEKSFELFTKKIFNFDDNNSWANASPDLVNIGRNIVGRCGGIPLAIVVTAGMLRARERTEHAWNRVLESMGHKVQDGCAKVLALSYNDLPIASRPCFLYFGLYPEDHEIRAFDLINMWIAEKFIVVNSGNRREAEDLAEDVLNDLVSRNLIQLAKRTYNGRISSCRIHDLLHSLCVDLAKESNFFHTAHDAFGDPGNVARLRRITFYSDNVMIEFFRSNPKLEKLRVLFCFAKDPSIFSHMAYFDFKLLHTLVVVMSQSFQAYVTIPSKFGNMTCLRYLRLEGNICGKLPNSIVKLTRLETIDIDRRSLIQPPSGVWESKHLRHLCYRDYGQACNSCFSISSFYPNIYSLHPNNLQTLMWIPDKFFEPRLLHRLINLRKLGILGVSNSTVKMLSIFSPVLKALEVLKLSFSSDPSEQIKLSSYPHIAKLHLNVNRTMALNSQSFPPNLIKLTLAYFSVDRYILAVLKTFPKLRKLKMFICKYNEEKMDLSGEANGYSFPQLEVLHIHSPTGLSEVTCTDDVSMPKLKKLLLTGFHRRISLSERLKKLSK
B2: TM-2-2 variant pJL 476_C (822 C, 848 R) (receptor)
chain: MAEILLTSVINKSVEIAGNLLIQEGKRLYWLKEDIDWLQREMRHIRSYVDNAKAKEAGGDSRVKNLLKDIQELAGDVEDLLDDFLPKIQQSNKFNYCLKRSSFADEFAMEIEKIKRRVVDIDRIRKTYNIIDTDNNNDDCVLLDRRRLFLHADETEIIGLDDDFNMLQAKLLNQDLHYGVVSIVGMPGLGKTTLAKKLYRLIRDQFECSGLVYVSQQPRASEILLDIAKQIGLTEQKMKENLEDNLRSLLKIKRYVILLDDIWDVEIWDDLKLVLPECDSKVGSRMIITSRNSNVGRYIGGESSLHALQPLESEKSFELFTKKIFNFDDNNSWANASPDLVNIGRNIVGRCGGIPLAIVVTAGMLRARERTEHAWNRVLESMGHKVQDGCAKVLALSYNDLPIASRPCFLYFGLYPEDHEIRAFDLINMWIAEKFIVVNSGNRREAEDLAEDVLNDLVSRNLIQLAKRTYNGRISSCRIHDLLHSLCVDLAKESNFFHTAHDAFGDPGNVARLRRITFYSDNVMIEFFRSNPKLEKLRVLFCFAKDPSIFSHMAYFDFKLLHTLVVVMSQSFQAYVTIPSKFGNMTCLRYLRLEGNICGKLPNSIVKLTRLETIDIDRRSLIQPPSGVWESKHLRHLCYRDYGQACNSCFSISSFYPNIYSLHPNNLQTLMWIPDKFFEPRLLHRLINLRKLGILGVSNSTVKMLSIFSPVLKALEVLKLSFSSDPSEQIKLSSYPHIAKLHLNVNRTMALNSQSFPPNLIKLTLAYFSVDRYILAVLKTFPKLRKLKMFICKYNEEKMDLSGEANGYSFPQLEVLHIHSPCGLSEVTCTDDVSMPKLKKLLLTGFHRRISLSERLKKLSK
B3: TM-2-2 variant pJL 476_S (822 S, 848 R) (receptor)
chain: MAEILLTSVINKSVEIAGNLLIQEGKRLYWLKEDIDWLQREMRHIRSYVDNAKAKEAGGDSRVKNLLKDIQELAGDVEDLLDDFLPKIQQSNKFNYCLKRSSFADEFAMEIEKIKRRVVDIDRIRKTYNIIDTDNNNDDCVLLDRRRLFLHADETEIIGLDDDFNMLQAKLLNQDLHYGVVSIVGMPGLGKTTLAKKLYRLIRDQFECSGLVYVSQQPRASEILLDIAKQIGLTEQKMKENLEDNLRSLLKIKRYVILLDDIWDVEIWDDLKLVLPECDSKVGSRMIITSRNSNVGRYIGGESSLHALQPLESEKSFELFTKKIFNFDDNNSWANASPDLVNIGRNIVGRCGGIPLAIVVTAGMLRARERTEHAWNRVLESMGHKVQDGCAKVLALSYNDLPIASRPCFLYFGLYPEDHEIRAFDLINMWIAEKFIVVNSGNRREAEDLAEDVLNDLVSRNLIQLAKRTYNGRISSCRIHDLLHSLCVDLAKESNFFHTAHDAFGDPGNVARLRRITFYSDNVMIEFFRSNPKLEKLRVLFCFAKDPSIFSHMAYFDFKLLHTLVVVMSQSFQAYVTIPSKFGNMTCLRYLRLEGNICGKLPNSIVKLTRLETIDIDRRSLIQPPSGVWESKHLRHLCYRDYGQACNSCFSISSFYPNIYSLHPNNLQTLMWIPDKFFEPRLLHRLINLRKLGILGVSNSTVKMLSIFSPVLKALEVLKLSFSSDPSEQIKLSSYPHIAKLHLNVNRTMALNSQSFPPNLIKLTLAYFSVDRYILAVLKTFPKLRKLKMFICKYNEEKMDLSGEANGYSFPQLEVLHIHSPSGLSEVTCTDDVSMPKLKKLLLTGFHRRISLSERLKKLSK
B4: TM-2-2 variant pJL 476_F (822 F, 848 R) (receptor)
chain: MAEILLTSVINKSVEIAGNLLIQEGKRLYWLKEDIDWLQREMRHIRSYVDNAKAKEAGGDSRVKNLLKDIQELAGDVEDLLDDFLPKIQQSNKFNYCLKRSSFADEFAMEIEKIKRRVVDIDRIRKTYNIIDTDNNNDDCVLLDRRRLFLHADETEIIGLDDDFNMLQAKLLNQDLHYGVVSIVGMPGLGKTTLAKKLYRLIRDQFECSGLVYVSQQPRASEILLDIAKQIGLTEQKMKENLEDNLRSLLKIKRYVILLDDIWDVEIWDDLKLVLPECDSKVGSRMIITSRNSNVGRYIGGESSLHALQPLESEKSFELFTKKIFNFDDNNSWANASPDLVNIGRNIVGRCGGIPLAIVVTAGMLRARERTEHAWNRVLESMGHKVQDGCAKVLALSYNDLPIASRPCFLYFGLYPEDHEIRAFDLINMWIAEKFIVVNSGNRREAEDLAEDVLNDLVSRNLIQLAKRTYNGRISSCRIHDLLHSLCVDLAKESNFFHTAHDAFGDPGNVARLRRITFYSDNVMIEFFRSNPKLEKLRVLFCFAKDPSIFSHMAYFDFKLLHTLVVVMSQSFQAYVTIPSKFGNMTCLRYLRLEGNICGKLPNSIVKLTRLETIDIDRRSLIQPPSGVWESKHLRHLCYRDYGQACNSCFSISSFYPNIYSLHPNNLQTLMWIPDKFFEPRLLHRLINLRKLGILGVSNSTVKMLSIFSPVLKALEVLKLSFSSDPSEQIKLSSYPHIAKLHLNVNRTMALNSQSFPPNLIKLTLAYFSVDRYILAVLKTFPKLRKLKMFICKYNEEKMDLSGEANGYSFPQLEVLHIHSPFGLSEVTCTDDVSMPKLKKLLLTGFHRRISLSERLKKLSK
B5: TM-2-2 variant pJL 476_I (822 I, 848 R) (receptor)
chain: MAEILLTSVINKSVEIAGNLLIQEGKRLYWLKEDIDWLQREMRHIRSYVDNAKAKEAGGDSRVKNLLKDIQELAGDVEDLLDDFLPKIQQSNKFNYCLKRSSFADEFAMEIEKIKRRVVDIDRIRKTYNIIDTDNNNDDCVLLDRRRLFLHADETEIIGLDDDFNMLQAKLLNQDLHYGVVSIVGMPGLGKTTLAKKLYRLIRDQFECSGLVYVSQQPRASEILLDIAKQIGLTEQKMKENLEDNLRSLLKIKRYVILLDDIWDVEIWDDLKLVLPECDSKVGSRMIITSRNSNVGRYIGGESSLHALQPLESEKSFELFTKKIFNFDDNNSWANASPDLVNIGRNIVGRCGGIPLAIVVTAGMLRARERTEHAWNRVLESMGHKVQDGCAKVLALSYNDLPIASRPCFLYFGLYPEDHEIRAFDLINMWIAEKFIVVNSGNRREAEDLAEDVLNDLVSRNLIQLAKRTYNGRISSCRIHDLLHSLCVDLAKESNFFHTAHDAFGDPGNVARLRRITFYSDNVMIEFFRSNPKLEKLRVLFCFAKDPSIFSHMAYFDFKLLHTLVVVMSQSFQAYVTIPSKFGNMTCLRYLRLEGNICGKLPNSIVKLTRLETIDIDRRSLIQPPSGVWESKHLRHLCYRDYGQACNSCFSISSFYPNIYSLHPNNLQTLMWIPDKFFEPRLLHRLINLRKLGILGVSNSTVKMLSIFSPVLKALEVLKLSFSSDPSEQIKLSSYPHIAKLHLNVNRTMALNSQSFPPNLIKLTLAYFSVDRYILAVLKTFPKLRKLKMFICKYNEEKMDLSGEANGYSFPQLEVLHIHSPIGLSEVTCTDDVSMPKLKKLLLTGFHRRISLSERLKKLSK
B6: TM-2-2 variant pJL 468_T (848 T) (receptor)
chain: MAEILLTSVINKSVEIAGNLLIQEGKRLYWLKEDIDWLQREMRHIRSYVDNAKAKEAGGDSRVKNLLKDIQELAGDVEDLLDDFLPKIQQSNKFNYCLKRSSFADEFAMEIEKIKRRVVDIDRIRKTYNIIDTDNNNDDCVLLDRRRLFLHADETEIIGLDDDFNMLQAKLLNQDLHYGVVSIVGMPGLGKTTLAKKLYRLIRDQFECSGLVYVSQQPRASEILLDIAKQIGLTEQKMKENLEDNLRSLLKIKRYVILLDDIWDVEIWDDLKLVLPECDSKVGSRMIITSRNSNVGRYIGGESSLHALQPLESEKSFELFTKKIFNFDDNNSWANASPDLVNIGRNIVGRCGGIPLAIVVTAGMLRARERTEHAWNRVLESMGHKVQDGCAKVLALSYNDLPIASRPCFLYFGLYPEDHEIRAFDLINMWIAEKFIVVNSGNRREAEDLAEDVLNDLVSRNLIQLAKRTYNGRISSCRIHDLLHSLCVDLAKESNFFHTAHDAFGDPGNVARLRRITFYSDNVMIEFFRSNPKLEKLRVLFCFAKDPSIFSHMAYFDFKLLHTLVVVMSQSFQAYVTIPSKFGNMTCLRYLRLEGNICGKLPNSIVKLTRLETIDIDRRSLIQPPSGVWESKHLRHLCYRDYGQACNSCFSISSFYPNIYSLHPNNLQTLMWIPDKFFEPRLLHRLINLRKLGILGVSNSTVKMLSIFSPVLKALEVLKLSFSSDPSEQIKLSSYPHIAKLHLNVNRTMALNSQSFPPNLIKLTLAYFSVDRYILAVLKTFPKLRKLKMFICKYNEEKMDLSGEANGYSFPQLEVLHIHSPNGLSEVTCTDDVSMPKLKKLLLTGFHTRISLSERLKKLSK

What follows are binders tested against T1, Movement Protein of ToBRFV (assay: cell-based or functional assay).

| Binder | HR to MP Rugose [HR scale 0-4] |
| --- | --- |
| B1 | < 1 |
| B2 | 2 |
| B3 | 4 |
| B4 | 2 |
| B5 | 0 |

Target: T1, Movement Protein of ToBRFV
Test: cell-based or functional assay
Remark: another data set of the same source

| Binder | HR when expressed with MP Rugose [HR scale 0-4] |
| --- | --- |
| B6 | ~1 |

Reference: patent publication US20240049668A1 (VILMORIN AND CIE, published 2024)
